According to article PMC3229553:

Target: Orb (Drosophila (endogenous in ovaries))
Assay: co-IP; wild type ovary extract precipitated with Orb antibody coupled to protein A/G beads, room temperature 2 hours; Co-IP buffer 20 mM Hepes pH 7.5, 150 mM NaCl, 2.5 mM MgCl2, 250 mM sucrose, 0.05% NP40, 0.5% Triton-X, with RNase A; Western blot for Cup; HA antibody as negative control

- percent of Cup pulled down: 10%
B1: Cup (natural protein)
chain: MQMAEAEQENGAGALKIATNAGATDRPAHQQLPLPVEDQQDEVLTPAEKGKFEYPPPPPPPTPVQAPLATKATALNASQEHDDDEANSEKWEDPCAPPPPPPLPTSAFLATGLGYLKLPAFKLKDALEKAITKLEANKRTLKASPESSRSIKNKNVVALEMLPRRSNPETIGDGSMLASTSTAVMLQTKKPAVIVEMERRCKIINLLAKQNQILESISGEAIPMHGPSKHLHEDEGLTLQVLSARASTPYTQPSSMLSCTAVSCDLEHDSPRKQVASKEAVPEQQSSQVQQKRPPSTGIHKPGSLRAPKAVRPTTAPVVSSKPVKSYTRSRLMDIRNGMFNALMHRSKESFVMPRIATCDDIELEGRLRRMNIWRTSDGTRFRTRSTTANLNMNNNNNNECMPAFFKNKNKPNLISDESIIQSQPPQPQTEFQDPAIVNQRRIGSGRLNHSKWGYNDEDYHSYHNGKSQHMEEVNSKNSKNMTVLQFFDNGEISSQPQRRPNTPVMGMSINRSENDTLHSNESSEDLSRANENYVKRVMSGFLVVSKPKSRDVEDRHHRRYRNQNEEPEWFSCGPTSRLDTIELCGFDEDEEKMLKEGNKNHGLGETERETSKQKMDHKYKWTHAEPMGRSKYMPKHDTNNNHNVENMNNVMATEHQQQKEEKRPGSGRSFQFDKFNQSQQNYESSSYVNHQQPPQTQPQQMQQQSNTNTNNSKFMSFFANEGNSSSSSLNEFFKQAINQGHGNNPEQPKSLGHIGQMPSVDQLEAKWRRNSLNNVGETANKQTDNFQKLIGSLSSAKPQSQAVGYDAISNFIMQQQQYQQQQQKQHLIIQQQQQHTAFLASLQLKAILGRADTQLLLLRLTKGEISKHGLLVQLANPRLTDMDREAITAVLQFTNTQQQQQQHKQQLDMLSSTVIASQLQNLHNLAIVQQTLAARQQPQHNPQTQAPHQLSQEDLQAHANVIMRNAVMKRKIEEQTSKLINGGAKHQAQQQYLNRGQQRQARPDANSNALLHALISGGGNNHASGYPMNGQPQKHHSNLRFGDNQNFQSFESNQPHFATQYKQQYQQSQQQHPHQQPQQLNSLHQNNAGAVNSFNKAQMQAQSAISMLPNSGDEFH
